The target of one experiment is Hnmph1. Briefly: CDI HuProt native protein microarray.
The next experiment has as its target T1, FERD3L (human) (UniProt Q96RJ6).
T1 sequence (looked up): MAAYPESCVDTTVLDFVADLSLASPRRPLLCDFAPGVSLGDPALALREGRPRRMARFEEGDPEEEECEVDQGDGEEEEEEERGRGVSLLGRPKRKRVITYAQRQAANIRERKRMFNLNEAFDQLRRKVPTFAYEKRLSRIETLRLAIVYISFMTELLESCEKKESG
Briefly: CDI HuProt native protein microarray.

In experiment [1] the target is T2, human Interleukin-38 (IL-38) (human) (UniProt Q8WWZ1).
T2 sequence (looked up): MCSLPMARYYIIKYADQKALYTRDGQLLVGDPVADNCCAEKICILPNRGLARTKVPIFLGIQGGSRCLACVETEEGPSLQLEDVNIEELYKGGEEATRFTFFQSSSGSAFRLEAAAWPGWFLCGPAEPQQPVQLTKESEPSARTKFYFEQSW
Briefly: CDI HuProt native protein microarray.

A further experiment deals with IL-1β (human) (UniProt P01584). In words: CDI HuProt native protein microarray.
A further experiment deals with T3, IL-37 (human) (UniProt Q9NZH6).
T3 sequence (looked up): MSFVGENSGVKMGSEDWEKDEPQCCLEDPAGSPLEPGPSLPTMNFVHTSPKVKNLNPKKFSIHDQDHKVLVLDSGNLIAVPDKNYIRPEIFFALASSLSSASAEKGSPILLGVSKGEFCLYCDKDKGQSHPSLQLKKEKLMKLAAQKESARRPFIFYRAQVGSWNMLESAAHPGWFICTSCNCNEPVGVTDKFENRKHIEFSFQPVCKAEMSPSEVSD
In words: CDI HuProt native protein microarray.

Another experiment deals with IL-18 (human) (UniProt Q14116). In words: CDI HuProt native protein microarray.
Another experiment concerns the target T4, IL-36b (human) (UniProt Q9NZH7).
T4 sequence (looked up): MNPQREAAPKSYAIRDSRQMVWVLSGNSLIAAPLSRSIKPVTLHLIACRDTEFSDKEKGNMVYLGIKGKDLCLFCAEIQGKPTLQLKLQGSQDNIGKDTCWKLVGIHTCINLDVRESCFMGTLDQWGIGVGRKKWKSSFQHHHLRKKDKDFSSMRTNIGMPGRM
Briefly: CDI HuProt native protein microarray.

The next experiment concerns the target T5, IL-36g (human) (UniProt Q9NZH8).
T5 sequence (looked up): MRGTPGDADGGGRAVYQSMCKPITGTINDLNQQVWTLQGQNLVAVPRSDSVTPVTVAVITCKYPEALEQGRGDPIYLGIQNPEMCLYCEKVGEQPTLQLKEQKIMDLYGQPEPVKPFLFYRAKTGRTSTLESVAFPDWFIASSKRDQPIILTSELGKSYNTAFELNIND
Briefly: CDI HuProt native protein microarray.

Another experiment addresses IL-1Ra (human) (UniProt P18510). In words: CDI HuProt native protein microarray.
Another experiment addresses T6, IL-1α (human) (UniProt P01583).
T6 sequence (looked up): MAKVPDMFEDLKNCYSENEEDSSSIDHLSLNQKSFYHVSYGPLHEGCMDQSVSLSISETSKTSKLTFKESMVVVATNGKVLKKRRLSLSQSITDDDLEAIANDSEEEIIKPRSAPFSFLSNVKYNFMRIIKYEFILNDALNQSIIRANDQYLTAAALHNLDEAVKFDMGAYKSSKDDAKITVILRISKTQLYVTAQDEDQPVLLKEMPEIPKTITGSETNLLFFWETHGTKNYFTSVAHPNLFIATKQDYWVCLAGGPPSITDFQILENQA
Briefly: CDI HuProt native protein microarray.

In experiment [2] the target is T2, human Interleukin-38 (IL-38) (human). In words: CDI HuProt native protein microarray. This is another data set of the same source.
A further experiment has as its target T7, IL-36Ra (human) (UniProt Q9UBH0).
T7 sequence (looked up): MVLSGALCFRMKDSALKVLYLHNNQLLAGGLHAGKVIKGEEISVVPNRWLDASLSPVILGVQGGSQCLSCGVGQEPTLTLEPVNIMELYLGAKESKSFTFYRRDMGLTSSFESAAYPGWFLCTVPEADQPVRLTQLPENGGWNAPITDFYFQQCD
Briefly: CDI HuProt native protein microarray.

A further experiment deals with T8, IL-33 (human) (UniProt O95760).
T8 sequence (looked up): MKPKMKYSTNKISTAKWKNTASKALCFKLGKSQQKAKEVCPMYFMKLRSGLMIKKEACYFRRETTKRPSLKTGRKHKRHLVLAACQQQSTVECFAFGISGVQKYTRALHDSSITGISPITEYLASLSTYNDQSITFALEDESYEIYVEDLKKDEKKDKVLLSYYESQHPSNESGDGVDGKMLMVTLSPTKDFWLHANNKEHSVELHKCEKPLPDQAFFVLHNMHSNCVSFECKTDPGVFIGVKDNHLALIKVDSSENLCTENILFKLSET
In words: CDI HuProt native protein microarray.

The target in a further experiment is T9, IL-36a (human) (UniProt Q9UHA7).
T9 sequence (looked up): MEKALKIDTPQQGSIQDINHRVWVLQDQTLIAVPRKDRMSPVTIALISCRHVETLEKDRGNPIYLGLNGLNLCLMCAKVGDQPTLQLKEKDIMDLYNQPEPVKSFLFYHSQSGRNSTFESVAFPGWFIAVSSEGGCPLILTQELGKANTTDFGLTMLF
In words: CDI HuProt native protein microarray.

Experiment [3] has as its target T2, human Interleukin-38 (IL-38) (human). In words: BLI (Octet QKe), antibody on anti-mouse Fc biosensor, soluble IL-38, 1:1 model.

Read-outs that look alike come from different tables or passages of the source.

Sequence of IL-1Ra (human) (P18510 26-177 limits assumed): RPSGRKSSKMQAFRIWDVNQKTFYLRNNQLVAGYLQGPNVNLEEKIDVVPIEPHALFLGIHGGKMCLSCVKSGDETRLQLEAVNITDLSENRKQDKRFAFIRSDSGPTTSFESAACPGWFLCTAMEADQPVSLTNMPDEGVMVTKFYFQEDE
Sequence of IL-1β (human) (P01584 whole entry): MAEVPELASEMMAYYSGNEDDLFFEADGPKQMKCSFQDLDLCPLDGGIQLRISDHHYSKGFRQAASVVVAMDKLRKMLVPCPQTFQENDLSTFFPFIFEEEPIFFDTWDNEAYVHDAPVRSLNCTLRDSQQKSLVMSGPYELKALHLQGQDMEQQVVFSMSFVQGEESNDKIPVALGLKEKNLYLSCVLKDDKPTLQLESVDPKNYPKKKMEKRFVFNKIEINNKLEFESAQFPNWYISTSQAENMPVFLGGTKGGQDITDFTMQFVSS
Sequence of IL-18 (human) (Q14116 whole entry): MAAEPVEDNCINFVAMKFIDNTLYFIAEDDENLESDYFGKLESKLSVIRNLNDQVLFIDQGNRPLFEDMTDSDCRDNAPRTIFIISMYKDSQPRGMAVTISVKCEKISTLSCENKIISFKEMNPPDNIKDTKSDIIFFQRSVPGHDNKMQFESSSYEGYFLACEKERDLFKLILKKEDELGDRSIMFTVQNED

B1: CD1-M3 (antibody, from a related filing, V domains shown)
VH: EVQLQQSGPELVKPGASVKIPCKASGYTFTDYNMDWVKQSHGKSLEWIGDINPNNGGTIYNQKFKGKATLTVDKSSSTAYMELRSLTSEDTAVYYCSRPYYGYFAYWGQGTLVTVSA
VL: DVVMTQSPLSLPVSLGDQASISCRSSQSLVHSHENTFLHWYLQKPGQSPKLLIYRVSNRFSGVPDRFSGSGSGTDFTLKISRVEAEDLGVYFCSQSTHVPLTFGAGTKLELK
In the case of B1, the F635 with Hnmph1 came out at 4130; with FERD3L (human), 19100; in [1], 54000. Moreover, the Z-score with Hnmph1 is 10.6; with FERD3L (human), 49.2; in experiment [1], 140; with IL-1β (human), -0.016; with IL-37 (human), -0.013; with IL-18 (human), -0.016. For the same molecule, the Z-score in the experiment with IL-36b (human) was -0.016; in the experiment with IL-36g (human), -0.017; with IL-1Ra (human), -0.013; with IL-1α (human), -0.013; in experiment [2] it was 140; with IL-36Ra (human) it was -0.017. For the same molecule, the Z-score with IL-33 (human) was -0.02; with IL-36a (human), -0.008. Moreover, the s-score worked out at 5 with Hnmph1, 26.2 with FERD3L (human) and 90.3 in experiment [1]. The same molecule returned a Kd in [3] of 721 pM.

B2: CD1-M8 (antibody, from a related filing, V domains shown)
VH: EVQLQQSGPELVKPGASVKMSCKASGYTFTDYYIHWVKQSHGKGLEWIGYIFPNNGGNGYSQKFKGKATMTVDKSSSTAYMELRSLTSEDSAVYYCARGGYDAGFVYWGQGTLVTVSA
VL: DIVMSQSPSSLAVSAGEKVTMSCKSSQSLFNSGARKNFLAWYQQKPGQSPKLLIYWASTRESGVPDRFTGSGSGTDFTLTISSVQAEDLAVYYCKQSYYLITFGAGTKLELK
For B2, the results for the F635 (in the experiment with FERD3L (human); in experiment [1]) were 16300 and 45600, respectively. In addition, the Z-score was 50.9 with FERD3L (human); -0.017 with IL-1β (human); -0.016 with IL-37 (human); -0.016 with IL-18 (human); -0.01 in the experiment with IL-36b (human); -0.008 with IL-36g (human). Moreover, the Z-score with IL-1Ra (human) was 0.003; with IL-1α (human), -0.014; in experiment [2], 142; with IL-36Ra (human), -0.019; with IL-33 (human) it was -0.014; with IL-36a (human), 0.012. Besides, the s-score in the experiment with FERD3L (human) amounted to 40.8; in experiment [1] it was 91.5.

The values are drawn from patent US20220275077A1.
